B1: AT10-004 (antibody, V domains shown)
VH: QVQLVQSGAEVRKPGASVKVSCKASGYTFTRHGISWVRQAPGQGLEWMGWISAYTGDTDYAQKFQGRVTMTTDTSTNTAYMELRSLRSDDAAVYYCARLRLQGEVVVPPSQSNWFDPWGQGTLVTVSS
VL: EIVLTQSPATLSLYPGERATLSCRASQSVSRYLAWYQQKPGQAPRLLIYDASNRATGIPARFSGSGSGTDFTLTISSLEPEDFAVYYCQQRSNWLKITFGQGTRLEIKG
B2: AT10-002 (antibody, V domains shown)
VH: QLQLQESGPRLVKPSETLSLTCSVSGVSISSSNYYWGWIRQPPGKGLEWIGTIYHSGSTYYNPSLKSRLIISVDTSKNQFYLQLTSLTAADSAVYYCATGGGFGWSQTYFGYWGQGTLVTASS
VL: QSALTQPASVSGSPGQSITISCTGTSSDVGAYNYVSWYQHHPGKAPKLMIYDVTYRPSGVSTRFSGSKSGNTASLTISGLQAEDEADYYCSSQSRSSTLVIFGGGTKLTVLG
B3: AT10-003 (antibody, V domains shown)
VH: QVHLVQSGAEVRKPGASVKVSCKVSGYTLNELSIHWLRQAPGRGLEWMGSFDPEDGETIYAQKFQGRVTMTGDTSTDTAYLELTSLRSEDTALYYCARGWGAVTSPFDFWGQGTLVTVSS
VL: DIVMTQSPLSLPVTPGEPASISCRSSQSLLHSNGHIYFDWYLQKPGQSPQLLIYLVSKRASGVPDRFSGSGSGTDFTLKISRVEAEDVGVYYCMQALETPFTFGPGTKVHIKR
B4: AT10-001 (antibody, V domains shown)
VH: EVQLLESGGGLVQPGGSLRLSCAASGFSFSTYAMSWVRQAPGKGLEWVSGISGSGESTYYADSVKGRFTVSRDNSKNTLYLQMNSLRAEDTAVYYCAKQGDHIAWLLRGINFDYWGQGVLVTVSS
VL: EIVLTQSPGTLSLSPGERATLSCRASQSVSSSYLAWYQQKPGQAPRLLIYGASTRATGIPDRFSGRGSGTDFTLTISSLEPEDFAVYYCQNYGSPFLFTFGPGTKVDIKR

Molecular target: HA of H3N2 HKX-31 virus (Influenza A virus H3N2 HKX-31)
Assay: cell-based or functional assay

Q: With B1 as the binder, how does the IC50, in vitro virus neutralization on MDCK-SIAT cells read?
A: 0.017 µg/mL

Molecular target: HA of H5N1 A/turkey/Turkey/05 virus (Influenza A virus H5N1 A/turkey/Turkey/05)
Assay: cell-based or functional assay

Q: For B1, which IC50, in vitro virus neutralization on MDCK cells is on record?
A: > 15 µg/mL

Molecular target: HA of Influenza H1N1 (A/Hawaii/31/2007), on infected MDCK-SIAT cells or on virus (Influenza A virus H1N1 A/Hawaii/31/2007)
Assay: cell-based or functional assay

Q: Which IC50, in vitro virus neutralization on MDCK-SIAT cells does the source give for B1 here?
A: > 50 µg/mL

Q: With B2 as the binder, how does the IC50, in vitro virus neutralization on MDCK-SIAT cells read?
A: > 15 µg/mL

Q: B3 was tested. Which IC50, in vitro virus neutralization on MDCK-SIAT cells did it give?
A: > 15 µg/mL

Molecular target: HA of Influenza H1N1 (A/Neth/602/2009), on infected MDCK cells or on virus (Influenza A virus H1N1 A/Neth/602/2009 (host Human))
Assay: cell-based or functional assay

Q: Which IC50, in vitro virus neutralization on MDCK cells does the source give for B1 here?
A: > 15 µg/mL

Q: B2 was tested. Which IC50, in vitro virus neutralization on MDCK cells did it give?
A: > 15 µg/mL

Q: B3 was tested. Which IC50, in vitro virus neutralization on MDCK cells did it give?
A: > 15 µg/mL

Q: B4 was tested. Which IC50, in vitro virus neutralization on MDCK cells did it give?
A: > 15 µg/mL

Molecular target: HA of Influenza H3N2 (A/Netherlands/177/2008), on infected MDCK-SIAT cells or on virus (Influenza A virus H3N2 A/Netherlands/177/2008)
Assay: cell-based or functional assay

Q: With B1 as the binder, how does the IC50, in vitro virus neutralization on MDCK-SIAT cells read?
A: 0.17 µg/mL

Q: For B2, which IC50, in vitro virus neutralization on MDCK-SIAT cells is on record?
A: 0.18 µg/mL

Q: B3 was tested. Which IC50, in vitro virus neutralization on MDCK-SIAT cells did it give?
A: > 50 µg/mL

Q: How did the IC50, in vitro virus neutralization on MDCK-SIAT cells turn out when B4 was run?
A: 0.64 µg/mL

Molecular target: HA of Influenza H3N2 (A/Swine/St. Oedenrode/1996), on infected MDCK cells or on virus (Influenza A virus H3N2 A/Swine/St. Oedenrode/1996 (host Swine))
Assay: cell-based or functional assay

Q: How did the IC50, in vitro virus neutralization on MDCK cells turn out when B1 was run?
A: 2.3 µg/mL

Q: For B2, which IC50, in vitro virus neutralization on MDCK cells is on record?
A: 0.3 µg/mL

Q: With B3 as the binder, how does the IC50, in vitro virus neutralization on MDCK cells read?
A: > 15 µg/mL

Q: B4 was tested. Which IC50, in vitro virus neutralization on MDCK cells did it give?
A: 14 µg/mL

Molecular target: HA of high pathogenic H7N7 (A/Ch/Neth/621557/03), on infected MDCK cells or on virus (Influenza A virus H7N7 A/Ch/Neth/621557/03 (host Chicken))
Assay: cell-based or functional assay

Q: How did the IC50, in vitro virus neutralization on MDCK cells turn out when B1 was run?
A: 0.2 µg/mL

Q: B2 was tested. Which IC50, in vitro virus neutralization on MDCK cells did it give?
A: 0.1 µg/mL

Q: How did the IC50, in vitro virus neutralization on MDCK cells turn out when B3 was run?
A: > 15 µg/mL

Q: How did the IC50, in vitro virus neutralization on MDCK cells turn out when B4 was run?
A: 0.4 µg/mL

Molecular target: HA of low pathogenic H7N1 (A/Ch/Italy/1067/1999), on infected MDCK cells or on virus (Influenza A virus H7N1 A/Ch/Italy/1067/1999 (host Chicken))
Assay: cell-based or functional assay

Q: How did the IC50, in vitro virus neutralization on MDCK cells turn out when B1 was run?
A: 0.6 µg/mL

Q: Which IC50, in vitro virus neutralization on MDCK cells does the source give for B2 here?
A: 3.6 µg/mL

Q: B3 was tested. Which IC50, in vitro virus neutralization on MDCK cells did it give?
A: > 15 µg/mL

Q: B4 was tested. Which IC50, in vitro virus neutralization on MDCK cells did it give?
A: > 15 µg/mL

From patent US20150010566A1
